Experimental findings from paper PMC9426568, “Glucose-1,6-Bisphosphate, a Key Metabolic Regulator, Is Synthesized by a Distinct Family of α-Phosphohexomutases Widely Distributed in Prokaryotes” (mBio, 2022) are described below.

What is called Km is the concentration of substrate that gives half-maximal velocity. As usually defined, the kcat is the maximal rate divided by the concentration of active sites. What is called kcat/Km is the second-order rate constant that governs catalysis at low substrate concentration.

Series [1] deals with T1, Sll0726 (Synechocystis sp. PCC 6803, UniProt P74643).
T1 construct: gene pgm; recombinant, Strep-tagged, expressed in E. coli Rosetta-gami (DE3), purified
T1 sequence (P74643 1-567): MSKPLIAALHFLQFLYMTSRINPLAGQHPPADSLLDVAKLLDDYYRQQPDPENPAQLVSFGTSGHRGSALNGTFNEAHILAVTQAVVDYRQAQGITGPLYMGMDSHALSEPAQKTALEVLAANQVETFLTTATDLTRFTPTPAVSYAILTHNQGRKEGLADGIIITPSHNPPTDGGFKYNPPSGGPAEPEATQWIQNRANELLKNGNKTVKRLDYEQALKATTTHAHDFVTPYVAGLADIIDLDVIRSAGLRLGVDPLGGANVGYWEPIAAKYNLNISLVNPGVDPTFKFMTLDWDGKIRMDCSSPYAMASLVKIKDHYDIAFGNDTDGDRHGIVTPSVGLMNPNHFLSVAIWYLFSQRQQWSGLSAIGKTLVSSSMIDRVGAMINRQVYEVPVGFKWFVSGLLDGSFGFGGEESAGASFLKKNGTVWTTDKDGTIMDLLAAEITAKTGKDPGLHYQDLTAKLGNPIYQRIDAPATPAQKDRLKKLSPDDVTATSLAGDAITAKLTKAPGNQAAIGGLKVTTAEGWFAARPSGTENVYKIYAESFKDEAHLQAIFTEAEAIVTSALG
Put plainly: G6PDH-coupled PGM assay, NADPH at […] nm. In kind it is biochemical. The settings on record: inhibitor, 100 μM, varied Glc-1P, without Glc-1,6-BP; 10 mM MgCl2, pH 7.5, 30°C.

Substrate in series [2]: O=P(O)(O)O[C@H]1O[C@H](CO)[C@@H](O)[C@H](O)[C@H]1O
Description: purified protein. The series is classed as biochemical, Synechocystis sp. PCC 6803. The settings on record: with 60 μM Glc-1,6-BP (activator), 10 mM MgCl2, 150 mM KCl, HEPES-KOH pH 7.5, 30°C.

Substrate in series [3]: O=P(O)(O)OC[C@H]1O[C@H](OP(=O)(O)O)[C@H](O)[C@@H](O)[C@@H]1O
Description: purified protein. The series is classed as biochemical, Synechocystis sp. PCC 6803. Particulars: co-substrate 0.5 mM Frc-6P, 10 mM MgCl2, 150 mM KCl, HEPES-KOH pH 7.5, 30°C, lowest measurable concentration already saturating.

As to `O=P(O)(O)OC[C@H]1OC(O)(COP(=O)(O)O)[C@@H](O)[C@@H]1O` (stereo partly drawn) [Frc-1,6-BP], the “G6PDH-coupled PGM assay, NADPH at 340 nm” value in series [1] was “effect of different concentrations of Frc-1,6-BP on Sll0726 and observed major inhibition”.

B1: Sll0726 (Synechocystis sp. PCC 6803 substr. Kazusa) (protein)
chain: T1 sequence (P74643 1-567)
notes: recombinant, Strep-tagged, expressed in E. coli Rosetta-gami (DE3), purified
On to B1, for which, in series [2], the Km was found to be 190 ± 40 µM, the kcat came out at 415 ± 30.6 s⁻¹ and the kcat/Km worked out at 3.04e+06 M⁻¹ s⁻¹.

B2: Slr1334 (Synechocystis sp. PCC 6803 substr. Kazusa) (protein)
chain: MVYTPAPIKFGTDGWRGVIAAEFTFERVVLVAAAAAQVLAAEFGSSGREHRLIVGYDRRFMAEQFALLVAQTVQELGFEVWLSESYAPTPAFSWAAHHENALGALVLTASHNPANYLGLKVKGAFGGSVGSDVTEKIEAQLQNSLPQPQAGGSLQYFDPWPSYCQGLQAKVNVQPIREAVQQGKLRVFADVMHGAAASGLERLLGCPIDEINGDRDPLFGGASPEPLPKYVPKLLAALQTAAKAGGPELRVGLIFDGDADRIAAVDGQGNFLSSQGLIPILIYHLATQKGLQGEIVKTVSGSDLIPKLAELYGIPLTETAIGYKYIADRMLTSPVLIGGEESGGIGYGGHIPERDALLSALYVLETVVQSQQDISEQYGRLQEKVCFVSEYDRIDLPLASMDVRTALVQTLNENPLTAIAGEQVTDLLTTDGYKFRMAGGGWLLIRFSGTEPLLRLYCEAPTSSRVQTVLHWAKDWANGVTPAKPAQSSH
notes: recombinant, expressed in E. coli Rosetta-gami (DE3), purified
Take B2: in series [3], the kcat came to 1.2 ± 0.03 s⁻¹ and the kcat/Km was determined as 600000 M⁻¹ s⁻¹. Further, in series [2], the Michaelis constant (Km) was 90 ± 20 µM, the kcat was found to be 14.4 ± 0.7 s⁻¹ and the kcat/Km came to 158000 M⁻¹ s⁻¹.
